Source: the supplement of paper PMC10065799, “High-throughput profiling of sequence recognition by tyrosine kinases and SH2 domains using bacterial peptide display” (eLife, 2023)

Tests used:
[1] = system: AncSZ; assay: phosphorylation enrichment, bacterial display (enrichment ratio); higher = better substrate or ligand; peptides without Tyr show the background
[2] = target: EPHB1 (UniProt P54762); assay: as above
[3] = target: EPHB2 (UniProt P29323); assay: as above
[4] = target: FGFR1 (UniProt P11362); assay: as above
[5] = target: FGFR3 (UniProt P22607); assay: as above
Chain of FGFR3 (P22607 whole entry, looked up): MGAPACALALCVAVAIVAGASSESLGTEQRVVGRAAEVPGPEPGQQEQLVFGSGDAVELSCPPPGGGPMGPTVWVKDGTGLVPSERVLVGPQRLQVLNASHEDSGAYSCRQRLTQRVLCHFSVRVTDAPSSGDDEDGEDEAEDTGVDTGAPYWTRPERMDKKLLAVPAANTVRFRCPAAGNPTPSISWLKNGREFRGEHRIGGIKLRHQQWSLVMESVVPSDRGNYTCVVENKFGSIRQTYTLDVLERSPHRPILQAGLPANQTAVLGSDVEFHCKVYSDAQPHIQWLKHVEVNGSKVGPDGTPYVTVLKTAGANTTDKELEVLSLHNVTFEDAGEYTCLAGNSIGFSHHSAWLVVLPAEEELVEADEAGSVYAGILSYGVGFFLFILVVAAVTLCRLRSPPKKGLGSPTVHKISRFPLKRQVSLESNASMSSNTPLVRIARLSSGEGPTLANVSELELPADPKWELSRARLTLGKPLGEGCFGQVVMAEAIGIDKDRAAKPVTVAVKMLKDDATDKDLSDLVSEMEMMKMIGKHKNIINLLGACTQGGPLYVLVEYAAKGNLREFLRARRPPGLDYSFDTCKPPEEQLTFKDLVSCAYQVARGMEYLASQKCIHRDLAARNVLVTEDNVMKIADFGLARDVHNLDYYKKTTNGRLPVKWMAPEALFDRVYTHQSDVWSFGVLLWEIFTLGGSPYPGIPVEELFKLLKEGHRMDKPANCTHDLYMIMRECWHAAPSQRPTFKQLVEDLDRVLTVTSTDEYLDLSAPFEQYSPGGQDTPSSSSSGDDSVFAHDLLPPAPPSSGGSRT

[6] = system: Fer (mouse); assay: as above
[7] = target: Fes (UniProt P07332); assay: as above
Chain of Fes (P07332 whole entry, looked up): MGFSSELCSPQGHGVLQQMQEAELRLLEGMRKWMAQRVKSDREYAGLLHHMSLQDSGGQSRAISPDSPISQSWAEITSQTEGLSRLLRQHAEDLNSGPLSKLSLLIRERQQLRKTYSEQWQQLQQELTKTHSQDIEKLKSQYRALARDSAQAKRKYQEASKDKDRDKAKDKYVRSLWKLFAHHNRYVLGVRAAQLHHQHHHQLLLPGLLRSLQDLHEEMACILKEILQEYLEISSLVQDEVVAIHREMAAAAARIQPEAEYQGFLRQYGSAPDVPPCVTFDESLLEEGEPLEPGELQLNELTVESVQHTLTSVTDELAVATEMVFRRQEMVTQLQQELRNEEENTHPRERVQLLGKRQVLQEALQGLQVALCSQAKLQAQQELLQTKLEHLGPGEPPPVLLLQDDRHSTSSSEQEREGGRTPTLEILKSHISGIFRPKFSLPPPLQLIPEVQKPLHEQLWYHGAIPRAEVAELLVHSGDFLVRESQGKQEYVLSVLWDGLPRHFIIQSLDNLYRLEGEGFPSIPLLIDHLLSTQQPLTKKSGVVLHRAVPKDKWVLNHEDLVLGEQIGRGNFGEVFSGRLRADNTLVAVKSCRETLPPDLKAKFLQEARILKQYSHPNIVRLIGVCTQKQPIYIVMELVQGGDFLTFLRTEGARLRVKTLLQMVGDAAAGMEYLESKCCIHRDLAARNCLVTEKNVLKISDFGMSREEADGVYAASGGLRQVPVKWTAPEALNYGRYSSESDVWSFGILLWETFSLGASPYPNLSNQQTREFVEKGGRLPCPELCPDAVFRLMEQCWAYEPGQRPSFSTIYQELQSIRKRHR

[8] = target: Fyn (UniProt P06241); assay: as above
Chain of Fyn (P06241 whole entry, looked up): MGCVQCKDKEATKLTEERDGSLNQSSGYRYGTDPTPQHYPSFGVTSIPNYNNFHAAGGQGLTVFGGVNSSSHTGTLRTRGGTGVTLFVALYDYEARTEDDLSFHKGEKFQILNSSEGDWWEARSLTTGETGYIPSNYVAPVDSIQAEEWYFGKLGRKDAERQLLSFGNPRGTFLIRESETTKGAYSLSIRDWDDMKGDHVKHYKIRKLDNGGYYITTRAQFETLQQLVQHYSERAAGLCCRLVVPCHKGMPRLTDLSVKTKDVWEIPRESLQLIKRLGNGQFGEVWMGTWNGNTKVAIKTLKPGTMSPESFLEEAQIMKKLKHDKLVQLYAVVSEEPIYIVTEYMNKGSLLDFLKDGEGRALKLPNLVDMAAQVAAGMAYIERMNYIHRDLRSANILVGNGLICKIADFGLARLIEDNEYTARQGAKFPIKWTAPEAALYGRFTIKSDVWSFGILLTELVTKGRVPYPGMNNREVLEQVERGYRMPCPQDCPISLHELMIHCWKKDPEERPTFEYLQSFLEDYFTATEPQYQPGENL

[9] = target: Hck (UniProt P08631); assay: as above
Chain of Hck (P08631 whole entry, looked up): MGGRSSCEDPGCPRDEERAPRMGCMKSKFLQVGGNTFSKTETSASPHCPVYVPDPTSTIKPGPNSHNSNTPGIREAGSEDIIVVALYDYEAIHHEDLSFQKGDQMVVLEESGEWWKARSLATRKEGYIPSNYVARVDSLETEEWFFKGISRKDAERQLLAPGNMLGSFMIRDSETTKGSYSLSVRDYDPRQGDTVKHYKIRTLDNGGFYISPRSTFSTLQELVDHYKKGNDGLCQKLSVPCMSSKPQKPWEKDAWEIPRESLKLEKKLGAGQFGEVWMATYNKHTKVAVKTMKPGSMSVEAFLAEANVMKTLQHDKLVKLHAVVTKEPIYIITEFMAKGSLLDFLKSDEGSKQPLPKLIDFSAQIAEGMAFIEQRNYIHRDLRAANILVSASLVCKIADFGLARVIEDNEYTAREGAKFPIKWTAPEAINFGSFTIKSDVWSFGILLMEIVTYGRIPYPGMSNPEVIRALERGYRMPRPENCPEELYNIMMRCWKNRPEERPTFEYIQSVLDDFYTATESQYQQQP

[10] = target: Jak2 (UniProt O60674); assay: as above
[11] = target: MERTK (UniProt Q12866); assay: as above
Chain of MERTK (Q12866 whole entry, looked up): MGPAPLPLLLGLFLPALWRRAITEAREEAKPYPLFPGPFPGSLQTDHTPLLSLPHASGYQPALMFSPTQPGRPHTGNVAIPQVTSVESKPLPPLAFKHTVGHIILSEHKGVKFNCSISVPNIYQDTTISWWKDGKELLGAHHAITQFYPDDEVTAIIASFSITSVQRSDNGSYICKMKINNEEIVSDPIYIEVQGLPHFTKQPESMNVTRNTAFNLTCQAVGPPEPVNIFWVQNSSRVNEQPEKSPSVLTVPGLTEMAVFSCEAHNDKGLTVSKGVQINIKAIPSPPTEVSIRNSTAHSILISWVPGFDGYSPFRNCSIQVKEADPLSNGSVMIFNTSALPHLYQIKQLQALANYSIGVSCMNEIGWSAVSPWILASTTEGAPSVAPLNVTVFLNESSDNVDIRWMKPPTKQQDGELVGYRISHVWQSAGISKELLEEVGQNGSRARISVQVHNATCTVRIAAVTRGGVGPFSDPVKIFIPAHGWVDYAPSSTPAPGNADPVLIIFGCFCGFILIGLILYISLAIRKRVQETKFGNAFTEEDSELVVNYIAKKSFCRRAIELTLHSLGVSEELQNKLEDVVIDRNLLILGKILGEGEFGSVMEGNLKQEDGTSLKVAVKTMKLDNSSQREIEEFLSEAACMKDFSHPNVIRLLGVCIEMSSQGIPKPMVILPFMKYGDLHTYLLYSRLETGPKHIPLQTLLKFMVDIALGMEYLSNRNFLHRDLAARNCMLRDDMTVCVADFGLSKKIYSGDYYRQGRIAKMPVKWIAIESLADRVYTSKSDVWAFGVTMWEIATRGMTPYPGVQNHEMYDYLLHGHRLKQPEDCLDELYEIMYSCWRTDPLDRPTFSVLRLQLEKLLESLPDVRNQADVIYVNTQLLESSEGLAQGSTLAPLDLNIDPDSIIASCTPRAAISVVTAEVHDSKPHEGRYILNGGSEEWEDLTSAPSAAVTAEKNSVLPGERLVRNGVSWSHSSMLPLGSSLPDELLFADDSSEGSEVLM

[12] = system: c-Abl (mouse); assay: as above
[13] = system: c-Src; assay: as above
[14] = target: Grb2 SH2 (UniProt P62993); assay: SH2 binding enrichment of the phosphorylated peptide, bacterial display (enrichment ratio); higher = better substrate or ligand; peptides without Tyr show the background
[15] = target: SHP2-C SH2; assay: as above
[16] = target: c-Src SH2; assay: as above
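Wherever SH2 binding enrichment of the phosphorylated peptide, bacterial display is given: peptide library displayed on the E. coli surface as eCPX fusions, selected cells deep-sequenced, score is each peptide's frequency after selection divided by its frequency in the input.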
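Wherever phosphorylation enrichment, bacterial display is given: 11-residue human phosphosite peptides and single-mutation variants displayed on the E. coli surface, counted by deep sequencing, each peptide's frequency after selection divided by its frequency in the unselected input library; frequency after pTyr selection over input frequency; kinase dosed for 20-30% of maximal phosphorylation in three min.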

Chain of EPHB2 (P29323 whole entry, looked up): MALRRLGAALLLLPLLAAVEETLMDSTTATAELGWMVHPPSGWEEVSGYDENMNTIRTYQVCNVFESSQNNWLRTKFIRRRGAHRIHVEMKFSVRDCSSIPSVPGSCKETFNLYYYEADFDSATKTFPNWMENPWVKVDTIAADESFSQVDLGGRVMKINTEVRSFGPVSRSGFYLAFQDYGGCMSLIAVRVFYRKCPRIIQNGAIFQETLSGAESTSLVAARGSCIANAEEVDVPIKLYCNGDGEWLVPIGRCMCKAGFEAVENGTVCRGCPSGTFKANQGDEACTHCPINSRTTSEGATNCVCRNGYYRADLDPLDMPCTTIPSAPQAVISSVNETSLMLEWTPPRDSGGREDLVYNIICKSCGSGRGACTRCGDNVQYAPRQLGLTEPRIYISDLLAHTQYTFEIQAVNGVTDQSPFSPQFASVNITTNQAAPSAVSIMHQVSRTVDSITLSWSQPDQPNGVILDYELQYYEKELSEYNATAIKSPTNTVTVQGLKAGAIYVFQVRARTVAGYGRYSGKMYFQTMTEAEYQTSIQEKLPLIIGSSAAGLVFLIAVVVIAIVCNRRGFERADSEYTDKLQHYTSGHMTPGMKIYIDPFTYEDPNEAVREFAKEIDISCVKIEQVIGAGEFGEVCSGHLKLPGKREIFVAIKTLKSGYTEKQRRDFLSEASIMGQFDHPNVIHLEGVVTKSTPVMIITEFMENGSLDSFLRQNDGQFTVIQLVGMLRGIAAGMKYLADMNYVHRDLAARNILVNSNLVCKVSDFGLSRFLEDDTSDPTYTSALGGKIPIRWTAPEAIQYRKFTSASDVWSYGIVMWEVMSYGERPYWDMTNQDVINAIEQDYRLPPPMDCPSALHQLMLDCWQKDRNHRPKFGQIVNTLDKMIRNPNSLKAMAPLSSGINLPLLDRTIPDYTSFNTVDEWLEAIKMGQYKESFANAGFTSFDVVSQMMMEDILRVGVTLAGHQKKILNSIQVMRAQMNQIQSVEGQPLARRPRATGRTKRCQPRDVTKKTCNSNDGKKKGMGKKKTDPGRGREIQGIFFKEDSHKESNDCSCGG

Row | SH2 binding enrichment [14] | SH2 binding enrichment [15] | SH2 binding enrichment [16] | Sequence | phosphorylation enrichment [1] | phosphorylation enrichment [2] | phosphorylation enrichment [3] | phosphorylation enrichment [4] | phosphorylation enrichment [5] | phosphorylation enrichment [6] | phosphorylation enrichment [7] | phosphorylation enrichment [8] | phosphorylation enrichment [9] | phosphorylation enrichment [10] | phosphorylation enrichment [11] | phosphorylation enrichment [12] | phosphorylation enrichment [13]
1 | 0.792 | 0.528 | 0.525 | GGMTEYELVVV [KRAS_Y4_K5E] | 1.6 | 1.39 | 1.15 | 2.95 | 1.62 | 7.66 | 1.04 | 0.664 | 0.585 | 1 | 0.456 | 0.589 | 0.651
2 | 0.771 | 1.09 | 0.434 | GHEEFYSTHPH [LRRK2_Y1402_R1398H] | 0.664 | 0.617 | 0.7 | 0.76 | 0.549 | 1.41 | 0.626 | 0.638 | 1.15 | 0.59 | 1.77 | 0.504 | 1.2
3 | 0.878 | 0.859 | 0.746 | GHEYIYVDRMQ [PDGFRB_Y581_P584R] | 0.891 | 0.796 | 0.546 | 5.2 | 3.24 | 0.472 | 0.695 | 1.94 | 1.44 | 0.644 | 0.48 | 0.607 | 2.62
4 | 0.762 | 0.621 | 0.413 | GHGEEYPVAGA [NOTCH3_Y2221_A2223V] | 0.763 | 0.451 | 0.424 | 0.481 | 0.48 | 0.408 | 0.755 | 0.438 | 0.421 | 0.682 | 0.373 | 0.592 | 0.398
5 | 0.817 | 1.05 | 0.481 | GINDDHGQLKN [NBN_Y679_Y679H] | 0.757 | 0.448 | 0.475 | 0.471 | 0.591 | 0.426 | 0.763 | 0.537 | 0.484 | 0.591 | 0.473 | 0.524 | 0.382
6 | 0.73 | 0.499 | 0.389 | GKGGSYSKAES [HLA-E_Y341_W346S] | 0.485 | 0.3 | 0.295 | 0.391 | 0.394 | 0.307 | 0.514 | 0.375 | 0.359 | 0.386 | 0.447 | 0.462 | 0.423

Continued, sequence first:

Row | Sequence | SH2 binding enrichment [14] | SH2 binding enrichment [15] | SH2 binding enrichment [16] | phosphorylation enrichment [1] | phosphorylation enrichment [2] | phosphorylation enrichment [3] | phosphorylation enrichment [4] | phosphorylation enrichment [5] | phosphorylation enrichment [6] | phosphorylation enrichment [7] | phosphorylation enrichment [8] | phosphorylation enrichment [9] | phosphorylation enrichment [10] | phosphorylation enrichment [11] | phosphorylation enrichment [12] | phosphorylation enrichment [13]
7 | GGGMFYPLDLF | 1.07 | 0.749 | 0.532 | 0.942 | 0.503 | 0.454 | 0.405 | 0.693 | 0.405 | 1.1 | 0.453 | 0.499 | 0.891 | 0.372 | 0.627 | 0.388
8 | GGPTFYIDTNA [ACTL6A_Y69_YF] | 0.874 | 0.608 | 0.577 | 1.24 | 0.707 | 0.626 | 0.542 | 0.868 | 0.529 | 1.39 | 0.458 | 0.53 | 1.13 | 0.41 | 0.775 | 0.439
9 | GHMFAYDWISI [BEST1_Y227_L224M_YF] | 1.25 | 1.03 | 1.15 | 1.47 | 1.05 | 0.933 | 3.48 | 2.15 | 13.8 | 2.68 | 0.935 | 1.78 | 0.842 | 7.14 | 0.922 | 1.28
10 | GHNDVYILEHV [GRIN2A_Y1423_S1425L] | 0.717 | 0.755 | 0.48 | 0.861 | 0.452 | 0.518 | 0.43 | 0.594 | 0.567 | 1.03 | 4.4 | 1.04 | 0.668 | 0.378 | 0.54 | 2.94
11 | GISDEYHVIRH [GCDH_Y398] | 0.827 | 0.606 | 0.941 | 0.917 | 0.458 | 0.475 | 4.48 | 2.26 | 0.405 | 0.69 | 0.64 | 0.962 | 0.633 | 0.339 | 0.569 | 0.664
12 | GIVEEYQLPYY [BMPR1A_Y453] | 0.862 | 0.997 | 4.36 | 3 | 0.611 | 0.642 | 1.06 | 0.946 | 0.66 | 1.06 | 0.647 | 0.63 | 1.29 | 0.567 | 1.16 | 3.47
13 | GIVKAYFVHAR [AIPL1_Y267_R270H_YF] | 1.3 | 1.71 | 1.01 | 0.795 | 0.422 | 0.494 | 0.388 | 0.605 | 0.481 | 0.872 | 0.449 | 0.461 | 0.73 | 0.448 | 0.602 | 0.428
14 | GIVKAYFVRAR [AIPL1_Y267_YF] | 0.826 | 0.756 | 0.506 | 1.11 | 0.445 | 0.434 | 0.487 | 0.558 | 0.463 | 0.991 | 0.488 | 0.503 | 1.13 | 0.512 | 0.669 | 0.467
15 | GKSHIYFWTLE [EML2_Y230] | 0.902 | 0.713 | 0.548 | 1.22 | 0.588 | 0.539 | 0.8 | 1.07 | 0.496 | 1.3 | 0.513 | 0.538 | 1.3 | 0.669 | 0.818 | 0.577
16 | GLAELYEYQKK [CKAP5_Y1854_K1857Q] | 0.671 | 0.697 | 0.509 | 1.08 | 0.909 | 0.472 | 0.61 | 0.629 | 0.87 | 0.985 | 0.532 | 0.857 | 0.917 | 0.574 | 0.529 | 0.813
